Here are results for one molecule from PMC5286426, “The Calcium-Dependent Switch Helix of L-Plastin Regulates Actin Bundling” (Scientific Reports, 2017).

In the test the target is T1, L-plastin EF construct (EF-hand headpiece domain, H5 region omitted) (human).
T1 construct: human L-plastin (LPL), EF construct: the two N-terminal EF-hand motifs (helices 1-4, residues 8-79) with the H5 region omitted; holds Cys42; 15N-labelled in the NMR experiment; immobilised by Cys42 in SPR; also called LPL-EF; EF domain of LPL; source: E. coli BL21 (DE3), purified (IMAC, His-tag cleaved with TEV protease); not shown: His-tag, N-terminal, cleaved
The experiment in a line: SPR; EF construct immobilised by its sole cysteine (Cys42) on a CM5 chip by thiol coupling; peptides injected; BIAcore X100; 10 mM Tris-HCl pH 7.5, 150 mM KCl, 1 mM CaCl2, 0.005% Tween-20; 30 uL/min, contact 1 min, 25 °C. Particulars: both partners purified.

B1: CaMKI peptide (CaM-binding peptide) (peptide)
chain: AKSKWKQAFNATAVVRHMRKLQ
modifications: Limits are not given; 299-320 is the conventional 22-residue CaMKI calmodulin-binding peptide. Terminal modifications are not stated.
B1: the affinity, expressed as Kd, was 3.27 µM.
